# Test: yeast display, Sf9 membrane polyspecificity reagent, FACS + sequencing; frameworks hold sequencing errors
# Procedure, shortened: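 In a synthetic yeast display library (Saccharomyces cerevisiae BJ5465), nanobody expression was induced with galactose for 36–48 hours. FACS gates were set low and high (top ~1%) using anti-HA fluorescence for expression and streptavidin fluorescence for binding of the Sf9 membrane reagent. Each polyreactivity label is drawn from the gate of origin.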
row,Sequence,polyreactivity (PSR sort gate)
1,QVQLVESGGGLVQAGGSLRLSCAASGRTFKSYAMGWYRQAPGKERELVAAISYSGGSTYYADSVKGRFTISRDNAKNTVYLQMNSLKPEDTAVYYCNVVSKVIRGLSGDGYWGQGTQVTVSS,high polyreactivity
2,QVQLVESGGGLVQAGGSLRLSCAASGRTFKTYAMGWYRQAPGKERELVAAISRDGRTYYADSVKGRFTISRDNAMNTVYLQMNSLKPEDTAVYYCNKRSYRKGDYWGQGTQVTVSS,low polyreactivity
3,QVQLVESGGGLVQAGGSLRLSCAASGRTFKVYAMGWYRQAPGKERELVAAISDRGGSTYYADSVKGRFTISRDNAKNSVYLQMNSLKPEDTAVYYCSAEYARSTWRAYPELDYWGQGTQVTVSS,low polyreactivity
4,QVQLVESGGGLVQAGGSLRLSCAASGRTFKYNTMGWYRQAPGKERELVAVISRSGGRTYYADSVKGRFTISRDNAKNTVYLQMNSLKPEDTAVYYCAKGIPYADPQSAYDDYWGQGTQVTVSS,high polyreactivity
5,QVQLVESGGGLVQAGGSLRLSCAASGRTFKYYAMGWSRQAPGKERELVATISSGGSTNYADSVKGRFTISRDNAKNTVYLQMNSLKPEDTAVYYCADTIGHNGFDYWGQGTQVTVSS,low polyreactivity
6,QVQLVESGGGLVQAGGSLRLSCAASGRTFKYYAMGWYRQAPGIEREFVAAITVSGGSTYYADSVKGRFTISRDNAKNPVYLQMNSLKPEDTAVYYCAARYQRYSSKTIQNEDYWGQGTQVTVSS,high polyreactivity
7,QVQLVESGGGLVQAGGSLRLSCAASGRTFKYYAMGWYRQAPGKERELVAAISRGGSTNYADSVKGRFTISRDNAKNTVYLQVNSLKPEDTPVYYCAKDYVWYDEYDYWGQGTQVTVSS,low polyreactivity
8,QVQLVESGGGLVQAGGSLRLSCAASGRTFKYYAMGWYRQAPGKERELVATITYSGGSTYYADSVKGRFTISRDNAKNTVYLQMNSLKPEDTAVYYCNKVIFLSQSSYSFHYAYDYWGQGTQVTVSS,high polyreactivity
9,QVQLVESGGGLVQAGGSLRLSCAASGRTFLEKAMGWYRPAPGKEREFVAANTYSSGSTFYADSVKGRFTISRDNAKNTVYLQMNSLKPEDTAVYYCAARFWYRHARWYDYWGQGTQVTVSS,high polyreactivity
10,QVQLVESGGGLVQAGGSLRLSCAASGRTFLFNTMGWYRQAPGKERELVAAITRRGGSTYYADSVKGRFTISRDNAKNTVYLQMNSLKPEDTAVYYCNAPAYSPPGYYWGQGTQVTVSS,low polyreactivity
11,QVQLVESGGGLVQAGGSLRLSCAASGRTFLGYAMGWYRQAPGKERELVAAISGSGDRTYYADSVKGRFTISRDNAKNTVYLQMNSLKPEDTAVYYCNAVTVRYYASYYGRGMDYWGQGTQVTVSS,high polyreactivity
12,QVQLVESGGGLVQAGGSLRLSCAASGRTFLGYAMGWYRQAPGKERELVAAISSSGGRTYYADSVKGRFTISRDNAKNTVYLQMNSLKPEDTAVYYCNAPRIVLCGYEYWGQGTQVTVSS,high polyreactivity
13,QVQLVESGGGLVQAGGSLRLSCAASGRTFLIYAMGWYRQAPGKERELVAAINNGGSTYYADSVKGRFTISRDNAKNTVYLQMNSLKPEDTAVYYCAARQIRATRYYYWGQGTQVTVSS,high polyreactivity
14,QVQLVESGGGLVQAGGSLRLSCAASGRTFLKYTLGWYRQAPGKERELVAAISGSGGSTYYADSVKGRFTISRDNAKNTVYLQMNSLKPEDTAVYYCAAAIVRHYQTGYYWGQGTQVTVSS,high polyreactivity
15,QVQLVESGGGLVQAGGSLRLSCAASGRTFLLNAMGWYRQAPGKERELVAAITRSGVITYYADSVKGRFTISRDIAKNTVYFQMNSLKPEDTAVFYCAAQLRYSYLRPSYYYWGQGTQVTVSS,high polyreactivity
16,QVQLVESGGGLVQAGGSLRLSCAASGRTFLNNAMGWYRQAPGKERELVAAITKSGGSTYYADSVKGRFTISRDNAKNTVYLQMNSLKPEDTAVYYCAAARRYYTYYREDYYYWGQGTQVTVSS,high polyreactivity
17,QVQLVESGGGLVQAGGSLRLSCAASGRTFLNYAMGWYRQAPGKEREFVAAITWRVGTTYYADSVKGRFTISRDNAKNTVYLQMNSLKPEDTAVYYCAARSRTGRYDYWGQGTQVTVSS,high polyreactivity
18,QVQLVESGGGLVQAGGSLRLSCAASGRTFLPNAMGWYRQAPGKERELVAVITSGGSTNYADSVKGRFTISRDNAKNTVYLQMNSLKQEDTAVYYCAARRWSSSQGHWGKSAGYGYWGQGTQVTVSS,low polyreactivity
19,QVQLVESGGGLVQAGGSLRLSCAASGRTFLPNDMGWYRQAPGKERELVAAITDSGGDTYYADSVKGRFTISRDNAKNTVYLQMNSLKPEDTAVYYCAADYYYYGSYYPVEYWGQGTQVTVSS,high polyreactivity
20,QVQLVESGGGLVQAGGSLRLSCAASGRTFLQYAMGWYRQAPGKERELVATISFSGGSTYADSVKGRFTISRDNAKNTVYLQMNSLKPEDTAVYYCNAGIRYFVVGRSSYDYWGQGTQVTVSS,low polyreactivity
21,QVQLVESGGGLVQAGGSLRLSCAASGRTFLRYAMGWYRQAPGKEREFVAAISYSGSRTYYADSVKGRFTISRDTAKKTVYLQMNSLKPEDTAVYYCATDSDARVELAGYDYWGQGTQVTVSS,high polyreactivity
22,QVQLVESGGGLVQAGGSLRLSCAASGRTFLRYTMGWYRQAAGKERELVAVITNGGTRTYYADSVKGRFTISRDNAKNTVYLQMNSLKPEYTAVYYCAARVRYTANYDYWGQGTQVTVSS,high polyreactivity

row,Sequence,polyreactivity (PSR sort gate)
1,QVQLVESGGGLVQAGGSLRLSCAASGRTFLRYTMGWYRQAPGKERELVASITRGGSTYYADSVKGRFTISRDNAKNTVYLQMNSLKPEDTAVYYCAAGKALLSRYDYWGQGTQVTVSS,high polyreactivity
2,QVQLVESGGGLVQAGGSLRLSCAASGRTFLSNAMGWYRQAPGKERELVAAISNGDNTYYADSVKGRFTISRDNAKNTVVLQMNSLKPEDTAVYYCAADQYWSWIYYPVVEYDYWGEGTQVTVSS,low polyreactivity
3,QVQLVESGGGLVQAGGSLRLSCAASGRTFLVNAMGWYRQAPGKEREFVAAITSRSGRTNYADSVKGRFTISRDNAKNTVYLEMNSLKPEDTAVYYCNAEGYTVKYWYSRYDYWGQGTQVTVSS,high polyreactivity
4,QVQLVESGGGLVQAGGSLRLSCAASGRTFLWNAMGWYRQAPGKERELITYYADSVKWRFTISRDNAKNTVYLQMNSLKPEDTAVYYCAAEQGSSVLYDSWGQGTQVTVSS,low polyreactivity
5,QVQLVESGGGLVQAGGSLRLSCAASGRTFLWNDMGWSRQAPGKERELVAAITGSDGTYADSVKGRFTISRDNAKNTVYLQMNSLKPEDTAVYYCAAETYWYFPWKYDYWGQGTQVTVSS,low polyreactivity
6,QVQLVESGGGLVQAGGSLRLSCAASGRTFLWYTMGWYRQAPGKERELVAAISGSGGSTYYADSVKGRFTISRDNAKNTVYLQMNSLKPEDTAVYYCNAVRGYRYDYWGQGTQVTVSS,high polyreactivity
7,QVQLVESGGGLVQAGGSLRLSCAASGRTFLYNAMGWYRQAPGKERELVAAIRRGSSTYYADSVKGRFTISRDNAMNTVYLQMNSLKPEDTAVYYCAARGRYRIGPGRYGKRYDYWGQGTQVTVSS,high polyreactivity
8,QVQLVESGGGLVQAGGSLRLSCAASGRTFLYNAMGWYRQAPGKERELVASISYSGGSTYYADSVKGRFTISRDTAKYTVYLQMNSLKPEDTAGYYCAARFYASQDIRYDYWGQGTQVTVSS,high polyreactivity
9,QVQLVESGGGLVQAGGSLRLSCAASGRTFLYNARGWSRQAPGKEMELVAAITKSGGSKYYADSVKGRFTISRDNAKNTVYLQMNSLKPEDTAVYYCAAARRYYTYYREDYYYWGQGTQVTVSS,high polyreactivity
10,QVQLVESGGGLVQAGGSLRLSCAASGRTFLYYAMGWYRQAPGKERELVAGITSGGSTNYADSVKGRFTISRDNAKNTVYLQMNSLKPEDTAVYYCAVDQGYSRTADVNYDYWGQGTQVTVSS,low polyreactivity
11,QVQLVESGGGLVQAGGSLRLSCAASGRTFLYYVMGWYRQAPGKERELVAAITNRGGSTYYADSVKGRFTISRDNAKNTVYLQLNSLKPEDTAVYYCNAPYGVYWSSTYYYWGQGTQVTVSS,high polyreactivity
12,QVQLVESGGGLVQAGGSLRLSCAASGRTFMKNTMGWYIQAPGKERELVAVITRNGDSTYADSVKGRFTISRDNAKNTVYLQKNSLKPEDTAVFYCNVGSYRYRRYDYWGQGTQVTVSS,high polyreactivity
13,QVQLVESGGGLVQAGGSLRLSCAASGRTFNAYTMGSYRPAPGKERELVAAITSSGGNTYYADSVKGRFTISRDNAKNTVYLQMNSLKPEDTAVYYCNTVYLYGTHDYWGQGTQVTVSS,low polyreactivity
14,QVQLVESGGGLVQAGGSLRLSCAASGRTFNGNAMGWYRQAPGKERELVAGISTSDGSTYYADSVKGRFTISRDNAKNTVYLQMNSLKPVDTAVYDCAAYSHHQFSSSEYYYWGQGTQLTVSS,low polyreactivity
15,QVQLVESGGGLVQAGGSLRLSCAASGRTFNGYAMGWYRQAPGKERELVAAISSSGGSTYYADSVKGRFTISRDNAKNTVYLQMNSLKPEDTAVYYCAARRANGFNYWGQGTQVTVSS,high polyreactivity
16,QVQLVESGGGLVQAGGSLRLSCAASGRTFNGYAMGWYRQAPGKERELVAAITWNGGRTSYADSVKGRFTISRDNAKNTVYLQMNSLKPEDTAVYYCATAVLYPYFFSNMDYWGQGTQVTVSS,low polyreactivity
17,QVQLVESGGGLVQAGGSLRLSCAASGRTFNGYAMGWYRQAPGKERELVASISWSGGRTYYADSVKGRFTISRDNAKNTVYLQMNSLIPEDTAVYYCNAYYYRVPRPWFDYWGQGTQVTVSS,high polyreactivity
18,QVQLVESGGGLVQAGGSLRLSCAASGRTFNGYVMGWYRQAPGKEREFVAVINWSGGNTYYADSVKGRFTISRDNAKNTVNLQMNSLKPEDTAVYYCAARRVRSYAYDYWGQGTQVTVSS,high polyreactivity
19,QVQLVESGGGLVQAGGSLRLSCAASGRTFNGYVMGWYRQAPGKERELVAAITNRDGSTYYADSVKGRFTISRDNAKNTVYLQMNSLKPEDTAVYYCAAPVWLWADRYDSWGQGTQVTVSS,low polyreactivity
20,QVQLVESGGGLVQAGGSLRLSCAASGRTFNIYAMGWYRQAPGKERELVAAISKRGGTTYYADSVKGRFTISRDNAKNTVYLQMNSLKPEDTAVYYCAADRTNPYYGGMDYWGQGTQVTVSS,high polyreactivity
21,QVQLVESGGGLVQAGGSLRLSCAASGRTFNIYAMGWYRQEPGKERELVAAITNNGGRTYYADSVKGRFTISRDNAKNTVYLQMNSLKPEDTAVYYCAAVSGRSYDKYYYWGQGTQVTVSS,high polyreactivity
